Measurements published in patent US20060019296A1, “Methods of indentifying modulators of the FGF receptor” (Mount Sinai School of Medicine, published 2006).
Square brackets hold non-standard residues; d marks the D form. Ends that are not written are not given here. pY = N[C@@H](Cc1ccc(OP(=O)(O)O)cc1)C(=O)O

T1: hFGFR1 peptide, 22-residue peptide derived from the juxtamembrane region of hFGFR1 (residues 409-430 of SEQ … (named hFGFR1 (human); SEQ ID NO:2 is …)
T1 peptide: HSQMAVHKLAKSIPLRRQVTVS

B1: SNT-1 PTB domain (amino acid residues 11-140 of SEQ ID NO:1) (other)
chain: DTVPDNHRNKFKVINVDDDGNELGSGIMELTDTELILYTRKRDSVKWHYLCLRRYGYDSNLFSFESGRRCQTGQGIFAFKCARAEELFNMLQEIMQNNSINVVEEPVVERNNHQTELEVPRTPRTPTTPGLVPR

Assays:
[1] = biological target: T1, hFGFR1 peptide, 22-residue peptide …; experiment: isothermal titration calorimetry (ITC)
[2] = biological target: B1; experiment: method not stated

Kd [1] [µM]	Kd [2] [µM]	fold higher affinity than for the FGFR derived peptide of SEQ ID NO:3 [2] [fold]	Binder
~10			B1
	~1	~10	LVIAGNPA[pY]RS [tyrosine-phosphorylated peptide LVIAGNPApYRS (SEQ ID NO:4)]
